Experiments:
[1] = target: calmodulin (UniProt P0DP23 1-149); test: cryo-EM structure
[2] = target: the molecule itself; test: cryo-EM structure

B1: Truncated rat Eag1 (rEag1Δ; Kv10.1 with residues 773-886 removed) (natural protein, UniProt Q63472 1-962, looked up)
chain: MTMAGGRRGLVAPQNTFLENIVRRSNDTNFVLGNAQIVDWPIVYSNDGFCKLSGYHRAEVMQKSSACSFMYGELTDKDTVEKVRQTFENYEMNSFEILMYKKNRTPVWFFVKIAPIRNEQDKVVLFLCTFSDITAFKQPIEDDSCKGWGKFARLTRALTSSRGVLQQLAPSVQKGENVHKHSRLAEVLQLGSDILPQYKQEAPKTPPHIILHYCVFKTTWDWIILILTFYTAILVPYNVSFKTRQNNVAWLVVDSIVDVIFLVDIVLNFHTTFVGPAGEVISDPKLIRMNYLKTWFVIDLLSCLPYDVINAFENVDEGISSLFSSLKVVRLLRLGRVARKLDHYIEYGAAVLVLLVCVFGLAAHWMACIWYSIGDYEIFDEDTKTIRNNSWLYQLALDIGTPYQFNGSGSGKWEGGPSKNSVYISSLYFTMTSLTSVGFGNIAPSTDIEKIFAVAIMMIGSLLYATIFGNVTTIFQQMYANTNRYHEMLNSVRDFLKLYQVPKGLSERVMDYIVSTWSMSRGIDTEKVLQICPKDMRADICVHLNRKVFKEHPAFRLASDGCLRALAMEFQTVHCAPGDLIYHAGESVDSLCFVVSGSLEVIQDDEVVAILGKGDVFGDVFWKEATLAQSCANVRALTYCDLHVIKRDALQKVLEFYTAFSHSFSRNLILTYNLRKRIVFRKISDVKREEEERMKRKNEAPLILPPDHPVRRLFQRFRQQKEARLAAERGGRDLDDLDVEKGNALTDHTSANHSLVKASVVTVRESPATPVSFYPIPEQTLQATVLEVKHELKEDIKALNAKMTSIEKQLSEILRILMSRGSSQSPQDTCEVSRPQSPESDRDIFGAS
modifications: N-acetyl glucosamine on N388 (density observed); glycosylation sites N388 and N406
- binding result [1]: binds
- stoichiometry N [2]: 4
